According to publication PMC2752207 (Biomaterials, 2009):
One block for each binder: values may come before it. Bridge positions count the residues as written; N and C are the ends. Ends that are not written are not given here. * marks the point of attachment. Acryloyl = C=CC(=O)*

Experiments:
recombinant human TNF-α = recombinant human TNF-α (human, UniProt P01375 77-233); experiment: uptake of the cytokine into peptide-functionalised hydrogels
[1] = biological target: AlexaFluor555-labeled TNFα (human, UniProt P01375 77-233, AlexaFluor 555 label (protein labeling kit; sites not stated)); experiment: FRET or BRET
Chain of AlexaFluor555-labeled TNFα (P01375 77-233): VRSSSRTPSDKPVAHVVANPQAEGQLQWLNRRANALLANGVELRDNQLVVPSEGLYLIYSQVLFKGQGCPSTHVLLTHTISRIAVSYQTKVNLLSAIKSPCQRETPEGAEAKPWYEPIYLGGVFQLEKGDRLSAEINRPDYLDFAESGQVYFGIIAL

Chain of recombinant human TNF-α (P01375 77-233): as above

- binding result (recombinant human TNF-α): binds
Binder: Acryloyl-YCWSQYLCY (disulfide 2-8 (inferred)) [acryl-WP9QY]

- binding result [1]: binds
B1: acryl-(FITC)WP9QY (peptide)
peptide: KYCWSQYLCY
modifications: N-terminus acrylated (acrylic acid); FITC conjugated to the additional lysine; intramolecular disulfide bond
